Values quoted from earlier work in publication PMC8093553.

Target: transferrin receptor (Homo sapiens) (UniProt P02786)
Sequence (P02786 101-760): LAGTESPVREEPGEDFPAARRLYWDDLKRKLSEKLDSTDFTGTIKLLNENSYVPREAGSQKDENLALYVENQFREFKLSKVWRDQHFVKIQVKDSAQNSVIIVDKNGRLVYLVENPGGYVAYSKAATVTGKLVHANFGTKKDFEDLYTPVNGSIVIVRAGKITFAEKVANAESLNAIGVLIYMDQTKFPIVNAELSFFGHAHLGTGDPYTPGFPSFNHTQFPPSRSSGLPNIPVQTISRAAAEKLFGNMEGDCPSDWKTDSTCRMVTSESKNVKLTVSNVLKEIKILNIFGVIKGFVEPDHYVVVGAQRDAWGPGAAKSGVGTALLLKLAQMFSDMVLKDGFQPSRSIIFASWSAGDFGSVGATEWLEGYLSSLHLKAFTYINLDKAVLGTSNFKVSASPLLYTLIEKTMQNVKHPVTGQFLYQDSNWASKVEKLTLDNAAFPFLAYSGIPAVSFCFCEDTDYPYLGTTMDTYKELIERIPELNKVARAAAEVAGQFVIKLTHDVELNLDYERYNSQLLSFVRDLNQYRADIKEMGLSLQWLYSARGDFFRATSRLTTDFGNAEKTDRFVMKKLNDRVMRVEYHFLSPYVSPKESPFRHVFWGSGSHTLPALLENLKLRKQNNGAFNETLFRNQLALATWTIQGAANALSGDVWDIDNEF

## T7 peptide
  Kd: 0.01 µM
